Km data for one protein are collected here from publication PMC9478397.

Substrate in the data set: Nc1nc(N[C@@H]2O[C@H](COP(=O)(O)O)[C@@H](O)[C@H]2O)c(NC=O)c(=O)[nH]1
Nature of the data set: formamidase assay, fluorescence HPLC of derivatized product (DARoPP / formate). The class given is biochemical, Sinorhizobium meliloti. As to conditions: 50 mM TES pH 7.2, 10% glycerol, 0.25 mM DTT, 1 mM MgCl2, 30 °C, 8 min.

A word on the Km: it is the substrate concentration at which the rate is half of its maximum.

B1: Sm-BrbF (SMc02977) (Sinorhizobium meliloti 1021) (protein)
chain: MSLPKPRWTDNSAALEPVERRDWIAVLPLGAHEQHGPHLPFETDRLIAAGIVERVIAALPQALPVTFLPVEPVGYSIEHMDVSGTRTLAYDEAIERWLGIAESLAGLGVRKFVMLNAHGGNSPLMTIVATEARIRFRMLAVATSWTRFGQPDGWISAKDKAVDIHGGDIETSVMLALHPDKVDMAKARAFPSRQGEFALSFKHLRAYGPHAFGWKMSDLNPDGVAGNAAAATAERGEALLAHAAKGIIELLEDVNAFDAGELD
notes: full ORF in pET-30 Ek/LIC, E. coli BL21; His tag cleaved with enterokinase, untagged
In the case of B1, the Km stood at 152.44 ± 33.59 µM.
